Experimental data taken from US20090010925 (published 2009).

Biological target: T1, VEGF(8-109) (human, UniProt P15692)
T1 chain: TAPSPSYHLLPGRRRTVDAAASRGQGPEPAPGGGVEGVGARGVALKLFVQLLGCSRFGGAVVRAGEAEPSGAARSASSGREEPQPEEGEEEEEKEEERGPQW
Assay: SPR, 25C

B1: Y0313-2 (antibody, V domains shown)
VH: EVQLVESGGGLVQPGGSLRLSCAASGYDFTHYGMNWVRQAPGKGLEWVGWINTYTGEPTYAADFKRRFTFSLDTSKSTAYLQMNSLRAEDTAVYYCAKYPHYYVNERKSHWYFDVWGQGTL
VL: DIQLTQSPSSLSASVGDRVTITCRANEQLSNYLNWYQQKPGKAPKVLIYFTSSLHSGVPSRFSGSGSGTDFTLTISSLQPEDFATYYCQQYSTVPWTFGQGTKVEIKR
Kd: 0.36 nM

B2: Y0241-7 (antibody, V domains shown)
VH: EVQLVESGGGLVQPGGSLRLSCAASGYDWTNYGINWVRQAPGKGLEWVGWINTYTGEPTYAADFKRRFTFSLDTSKSTAYLQMNSLRAEDTAVYYCAKYPHYYGSSHWYFDVWGQGTL
VL: DIQLTQSPSSLSASVGDRVTITCRANEQLSNYLNWYQQKPGKAPKVLIYFTSSLHSGVPSRFSGSGSGTDFTLTISSLQPEDFATYYCQQYSTVPWTFGQGTKVEIKR
Kd: 3 nM

B3: Y0242-1 (antibody, V domains shown)
VH: EVQLVESGGGLVQPGGSLRLSCAASGYTFTNYGMNWVRQAPGKGLEWVGWINTWTGEPTYAADFKRRFTFSLDTSKSTAYLQMNSLRAEDTAVYYCAKYPHYYGSSHWYFDVWGQGTL
VL: DIQLTQSPSSLSASVGDRVTITCRANEQLSNYLNWYQQKPGKAPKVLIYFTSSLHSGVPSRFSGSGSGTDFTLTISSLQPEDFATYYCQQYSTVPWTFGQGTKVEIKR
Kd: 1.8 nM

B4: Y0239-19 (antibody, V domains shown)
VH: EVQLVESGGGLVQPGGSLRLSCAASGYTFTNYGMNWVRQAPGKGLEWVGWINTYTGEPTYAADFKRRFTFSLDTSKSTAYLQMNSLRAEDTAVYYCAKYPHYYVNERKSHWYFDVWGQGTL
VL: DIQLTQSPSSLSASVGDRVTITCRANEQLSNYLNWYQQKPGKAPKVLIYFTSSLHSGVPSRFSGSGSGTDFTLTISSLQPEDFATYYCQQYSTVPWTFGQGTKVEIKR
Kd: 0.3 nM

B5: Y0241-6 (antibody, V domains shown)
VH: EVQLVESGGGLVQPGGSLRLSCAASGYDYTNYGINWVRQAPGKGLEWVGWINTYTGEPTYAADFKRRFTFSLDTSKSTAYLQMNSLRAEDTAVYYCAKYPHYYGSSHWYFDVWGQGTL
VL: DIQLTQSPSSLSASVGDRVTITCRANEQLSNYLNWYQQKPGKAPKVLIYFTSSLHSGVPSRFSGSGSGTDFTLTISSLQPEDFATYYCQQYSTVPWTFGQGTKVEIKR
Kd: 2.7 nM

B6: Y0239-2 (antibody, V domains shown)
VH: EVQLVESGGGLVQPGGSLRLSCAASGYTFTNYGMNWVRQAPGKGLEWVGWINTYTGEPTYAADFKRRFTFSLDTSKSTAYLQMNSLRAEDTAVYYCAKYPHYYKNDKSSHWYFDVWGQGTL
VL: DIQLTQSPSSLSASVGDRVTITCRANEQLSNYLNWYQQKPGKAPKVLIYFTSSLHSGVPSRFSGSGSGTDFTLTISSLQPEDFATYYCQQYSTVPWTFGQGTKVEIKR
Kd: 4.6 nM

B7: Y0240-1 (antibody, V domains shown)
VH: EVQLVESGGGLVQPGGSLRLSCAASGYTFTNYGMNWVRQAPGKGLEWVGWINTYTGEPTYAADFKRRFTFSLDTSKSTAYLQMNSLRAEDTAVYYCAKYPHYYLTDHKSHWYFDVWGQGTL
VL: DIQLTQSPSSLSASVGDRVTITCRANEQLSNYLNWYQQKPGKAPKVLIYFTSSLHSGVPSRFSGSGSGTDFTLTISSLQPEDFATYYCQQYSTVPWTFGQGTKVEIKR
Kd: 0.5 nM

B8: Y0261-6 (antibody, V domains shown)
VH: EVQLVESGGGLVQPGGSLRLSCAASGYTFTNYGMNWVRQAPGKGLEWVGWINTYTGEPTYAADFKRRFTFSLDTSKSTAYLQMNSLRAEDTAVYYCAKYPHYYLKDKKSHWYFDVWGQGTL
VL: DIQLTQSPSSLSASVGDRVTITCRANEQLSNYLNWYQQKPGKAPKVLIYFTSSLHSGVPSRFSGSGSGTDFTLTISSLQPEDFATYYCQQYSTVPWTFGQGTKVEIKR
Kd: 0.6 nM

B9: Y0239-12 (antibody, V domains shown)
VH: EVQLVESGGGLVQPGGSLRLSCAASGYTFTNYGMNWVRQAPGKGLEWVGWINTYTGEPTYAADFKRRFTFSLDTSKSTAYLQMNSLRAEDTAVYYCAKYPHYYAHEKKSHWYFDVWGQGTL
VL: DIQLTQSPSSLSASVGDRVTITCRANEQLSNYLNWYQQKPGKAPKVLIYFTSSLHSGVPSRFSGSGSGTDFTLTISSLQPEDFATYYCQQYSTVPWTFGQGTKVEIKR
Kd: 0.6 nM
